The results in this text go back to article PMC8393709.

Experiment [1] has as its target HPV16 E6 Y43E/F47R, full length (RLuc- and YFP-tagged). In words: BRET. To be noted: parent: est. 150; read off a plot.
The target of experiment [2] is HPV16 E6N Y43E/F47R, amino acids 1 to 80 (RLuc- and YFP-tagged). In words: BRET binding curve. The conditions noted are these: HEK 293T cells; value at the highest YFP/RLuc point of each curve (mutant x about 860, E6N x about 880); non-specific level (E6N + UL44) about 65; parent: est. 250; read off a plot.
Experiment [3] shares this target. As to the kind of experiment: BRET. The conditions noted are these: HEK 293T cells; RLuc- and YFP-tagged E6N fragments (amino acids 1 to 80); parent: est. 160; read off a plot.

Turning to “HPV16 E6, wild-type, full length (RLuc-E6 and YFP-E6) (from UniProt P03126) Y43E; F47R”, in experiment [1], the response was 53 a.u. (mBR).
On to “HPV16 E6N, N-terminal domain of E6, amino acids 1 to 80 (RLuc-E6N and YFP-E6N) Y43E; F47R”, for which the figures for the response in experiment [2] and in experiment [3] were 120 a.u. (mBR) and 70 a.u. (mBR), respectively.
